Experimental data: US10494417B2, “Peptide inhibitors of BCR-ABL oligomerization” (University of Utah Research Foundation, priority 2014, dated 2019)
“Also recorded” adds a separate entry of the source.

What was measured:
Type in all cases: cell-based, human
K562 cells [1] = assay: Nuclear (DNA) segmentation apoptosis assay in transfected K562 cells; conditions: 48 h, vs EGFP control
Procedure: CC^mut3 was then tested for its ability to induce apoptosis in K562 cells. Apoptosis was observed using 3 different methods: 1) nuclear segmentation; 2) induction of the effector Caspase-3/7; and 3) 7AAD/Annexin V staining.
Nuclear segmentation analysis was performed as previously described (16). Briefly, immediately prior to cellular analysis, 2-well live cell chambers were treated for 15 min with poly-L-lysine (Sigma-Aldrich, St. Louis, Mo., USA), to allow cell adhesion in the wells. Forty-eight h following transfection, the transfected K562 cells were transferred to the pretreated 2-well live cell chambers. Cells were incubated for 15 min at 37° C. following the addition of 0.3 μL Hoechst H33342 nuclear stain (Life Technologies, Carlsbad, Calif., USA). Cells were then imaged using an inverted fluorescence microscope (Olympus IX701F, Scientific Instrument Co., Sunnyvale, Calif., USA) equipped with an F-view Monochrome CCD camera. Fields of view were selected based on EGFP fluorescence when viewing using a 40× oil immersion objective. Nuclei from cells that were positively transfected (positive for EGFP fluorescence) were categorized as either healthy (round or kidney-shaped nuclei) or segmented (punctate staining of nuclei), and the percentage of cells with segmented DNA was calculated (n=3 in replicate).

K562 cells [2] = assay: Colony forming assay of transfected K562 cells; conditions: for colony formation (transformative ability), in words: construct delivered as a gene by transfection, vs EGFP (and WT) control
Procedure: Both EGFP and EGFP-CC^mut3 were transfected into separate groups of cells on day 0. One day following transfection, 1.0×10^6 cells per treatment group were collected and re-suspended in 1.0 mL of PBS. Through serial dilutions, 1.0×10^3 cells in IMDM (Isocove's modified Dulbecco's media) with 2% FBS were seeded into methylcellulose medium in the absence of cytokines (MethoCult H4230 for K562 cells and MethoCult M3234 for p210 and p210-T315I cells) or in the presence of cytokines (MethoCult GF M3434 for parental Ba/F3 cells). Ponatinib was then added in the correct molar amounts (0, 100 pM, 1 nM, or 10 nM) to the methylcellulose medium. Colonies formed were counted after 7 days of incubation. All reagents were purchased from Stem Cell Technologies, Vancouver, BC, Canada. Assay was run three separate times (n=3) in duplicate.
Briefly, K562 or Ba/F3-p210 cells were transfected according to the protocol above. One day following transfection, 1.0×10^6 cells per transfection group were collected and re-suspended in sterile PBS. […] Finally, 1.1 mL of cell/methylcellulose mixture was seeded in duplicate and allowed to grow at 37° C. and 5% CO2 for 7 days. Colony formation was assessed by counting colonies in two 200 μm2 areas on the plate. Experiments were performed once in duplicate (n=1 in duplicate). All kit reagents and media were purchased from Stem Cell Technologies (Vancouver, BC, Canada).

K562 cells [3] = assay: Proliferation/viability of transfected K562 cells (trypan blue exclusion); conditions: for proliferation/viability of K562 cells: trypan blue exclusion
Procedure: K562 cells, human leukemia Bcr-Abl^+ cells (gifted from Kojo Elenitoba-Johnson, University of Michigan), were grown in RPMI 1640 media supplemented with 10% FBS, 1% penicillin-streptomycin-glutamine, and 0.1% gentamicin (complete medium). […] Transfections were carried out two days following cell passaging. Then, 2.0×10^6 cells were collected and transfected with 6 μg pf pEGFP, pEGFP-CC^mut3, pmCherry, or pmCherry-CC^mut3 according to the Cell Line Nucleofector Kit V protocol, program T-013, using the Amaxa Nucleofector II (Lonza Group, Basel, Switzerland).
Cell counts were performed using a standard light microscope.
Two days following cell passaging, 2.0×10^6 cells were collected by centrifugation at 500×g for 10 min for each transfection group. Following cell collection, 6 lig DNA (pEGFP, pEGFP-CC, pEGFP-CCmut3, pEGFP-Helix2WT, pEGFP-Helix2mut3, pmCherry, pmCherry-CCmut3, or pmCherry-CappedHelix2mut3) was transfected into cells according to the Cell Line Nucleofector® Kit V protocol (program T-013) using the Amaxa Nucleofector II (Lonza Group, Basel, Switzerland). Following transfection, the DNA/cell mixture was added to 10 mL Complete RPMI 1640 media and allowed to incubate at 37° C. for 24, 48, or 72 h until analysis, depending on the assay.
Forty-eight or 72 h following transfection, 100 μL of treated K562 or Ba/F3-p210 cells was mixed with 100 μL trypan blue solution (Life Technologies). The numbers of viable cells (those impermeable to the trypan blue dye) from four different quadrants in an INCYTO™ C-CHIP™ Neubauer hemacytometer (VWR International, Radnor, Pa., USA) were counted using a standard light microscope. Quadrant counts were then averaged to obtain the number of viable cells per mL. For experiments using the Helix2mut3 construct, counts were performed on one aliquot per transfection (n=3 in replicate). In experiments involving the CappedHelix2mut3 construct, counts were performed three times using separate 100 pt aliquots from one transfection (n=1 in triplicate).

B1: CCmut3: modified Bcr-Abl coiled-coil domain (residues 1-72) with mutations C38A, K39E, S41R, L45D, E48R, Q60E (protein)
chain: MVDPVGFAEAWKAQFPDSEPPRMELRSVGDIEQELERAEARIRRDEQRVNQERFRMIYLETLLAKEKKSYDR
induction of apoptosis (nuclear/DNA segmentation) (K562 cells [1]): increase in apoptosis; also recorded: significantly induced apoptosis
induction of apoptosis (nuclear/DNA segmentation) (K562 cells [1]; listed as CC^mut3): induces apoptosis; also recorded: causing apoptosis via nuclear segmentation
colony formation, of EGFP control (K562 cells [2]; 7 days after seeding, normalized to EGFP control, n=1 in duplicate): approximately 20%
decrease in the amount of colonies formed compared to EGFP (K562 cells [2]; CC^mut3 alone, no ponatinib, 7 days): 3 fold
colony formation (transformative ability), in words (K562 cells [2]): showed inhibitory activity
colony formation (transformative ability), in words (K562 cells [2]; listed as CC^mut3): inhibits colony formation; also recorded: significantly greater inhibition
proliferation/viability of K562 cells (K562 cells [3]; 48 h following transfection, vs EGFP control, n=3): statistically significant decrease in the proliferation of K562 cells
proliferation/viability of K562 cells (K562 cells [3]; 72 h following transfection, vs mCherry control, n=1): potent inhibition of cell proliferation
inhibition of cell proliferation of K562 cells (K562 cells [3]; transfected, vs EGFP and WT control (FIG. 9)): inhibits proliferation; also recorded: significantly greater inhibition
